Reference: the NTF2 design screens of Basanta et al. (2020)

Assay: protease stability score; higher = more stable; yeast display proteolysis, trypsin and chymotrypsin;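 also: relative to predicted unfolded state with 0 unfolded-like and 1 meaning tenfold more protease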

Row | Sequence | protease stability score
1 | DEDEQELRDALERWIRAMYTGDEKTLRDLIDPNVLIDINGKIIHGRHKLSQHLREIRIHHFEMHIEDYRFQGDKVHMDVREKRHWVIGDKHIDESRSVTLIIVKFDGRWLMHRVIVH | 1.19
2 | DEDEQFWRNLAEEFMRALETGDEERMQELFDPHARLDIDGRRFHGWDTVIKFFEDLLKHLGITRIEFVYRRVRVINGVFHIEGEINVDGQTRDSRIENIVVDGKSQELRFNHR | 0.298
3 | DEDEQHSELLFRLLYHARKTGDWRKLQELADPHTRFQIGEWDLIGWKMYLEYVRNFRNVHLEFHIKDFRLYGEKTHSNVETIIRIGDKTLNIETELRVDVVNGRIKFIEVHER | 0.994
4 | DEDEQKHREAAHLMLEMILTGDFEYFRHLLDPDVRLEINGKEIHGREEVYRHLLEWWQRIKNVRIKFKTMRIHIFDGVLFIHLDLEIEIGDKSIKTEILIVSIKIDGRWLLNSLHIHDR | 1.04
5 | DEDEQMKESLLKIYRQSMHTGDEESHERLADPNVRVDWDGVRYHGRHILAIILHELGADHMDLKIKDSRLVNGRIHMTVIEIIDIGDKKHKIETHLIADKFDGRWHLRTLEIR | 0.785
6 | DEDERAIHVMLKLVKKAMDTGNEHMETELLDPNVRLDVNGRDVHGREEMRKFLNHHWKEWGVDRIIFLFESIHFQGDKVHIRGYVHINGKDFDVEFIASKVNGRWLVESRHLR | 1.03
7 | DEDERAYEESVRTFLENNLTGNEEILHRLMDPHVKTDYGDKRYHGMEEATEMIRRLGVNHFHLNSVHHQGDKVHLHGRVIVNGREFQVHIESKKINGRWVIRKVVID | 1.27
8 | DEDERDARKITDDYLHHLTTGDWNLMDTLADPHMKMDVNGQEIHGRESMVDLMLEWRFEHTDVHDKHVRSYDGKLEIHLDVHSRVHYNGRTDDTRREITLHIHKIDGRWRLEEVRIHYL | 0.695
9 | DEDERDARKTSHLFLEAFTTGDEDLLRDMVDPNARSIVNGQEEHGWEVIHKTVRELQERYPNVKIDVNDWSYEVQGDKMRTILHFIIHFDGVHVEIHIHVFSRKINGRWVIRRIEYHER | 2.07
10 | DEDERDFRHYMELFQKAHETGDEDHFIKMMDPNARFLINGVHLHGWKEFVRLLEHIRMDVSDTRIRTVDSQGDKVRADTELIFRGKIDGREIDVTFETRIIIEKVDGRWHLREIRVH | 1.3
11 | DEDERDTREAIELFRESIRTGDERILEEMVDPNVRLEFNGKHHHGMEHLVKWFSFLAKHWRVDIDLHHLEVQGDKVHSDERIDLVQGDKIVHTEVKIIFRKINGRWLMHKIRIN | 1.4
12 | DEDERDTRLALEELLRVSRTGNEHDHHRLVDPHVRMEINGRELHGWEVLVRLMHRYDHQELRVREVRVIGDKIDVDTENIVNFNGVEIVLETSIVARKIDGRWLIHSIHIG | 1.23
13 | DEDEREAERSIREELEYTRTGDEDFIKRLADPHVKLNIDGQRHHGRETVVKIMVEARIKDLHIERLTVIDGRVHMRGRMEGNFNGRDTEVEVHIKLKKVNGQWHVRDFEIR | 1.14
14 | DEDERELQELREHFIRKFLTGDWEAIANLFDPNTRMNFNGREVHGMEEVMRVFWEIMEKLGVDHQTIHDVKWQGDKLEVHSYLDINGRRHKLRIELQVIDGVIRSVHFEIE | 1.21
15 | DEDEREMERWFQEILEDLRTGDFRSISRMVDPHAKVDVNGQERHGREQVENLIRRFKNATIHITHVDLDVVNGKLVVRIDTRLHVDGQTRKTEIIVISNKVNGRWFMESLSFKIE | 0.904
16 | DEDERERRWIYQLFLYLFITGDFHTLENLFDPHMRLHYGNKEYHGREEVSKTMLKIWRDLGVKYLSLRHFHIEIFNGRVSLHFYGEQDINGVHRDIEFRVDLVKINGKWVIEQIDLRIN | 1.62
17 | DEDERESHNFMHEMEKAAKTGDWRKFEEMFDPDVRTIIGDKEDHGWEVAVKLFLDLGIKVLKVKRVDVVDGRLELEMELHFNGVIRKVTLRTKKVNGRWQVKELRFE | 1.57
18 | DEDERETRFIIKLLLETIQTGDEKTFEELLDPSVRLVVGDKIIHGRDVLSEFFSHARFHRIEIHNMESQGDKAHIDIRVDGKFNGKRKTTEVNLHIEKFDGRWRIKEFRIH | 2.08
19 | DEDEREVAEVLRRWLHDFLTGDEKEFHRLVDPHVKYREHYNGQQIHVHGRENLFEFIRRRNEEMRMEILIRDWKVQGDYAESEGEVIFDINGRIHSVDLRVEIIVVNGRVSKVHISVN | 0.847
20 | DEDEREVKHWLKILLHELWTGDFRNVSRLMDPHARLLINGVTVVGREEFLEVLRRVDHIELRIRDMKVIDGRIHAETELIEHFDGRTFIHDTHMRAKKVDGRWRIESIEIR | 1.31
21 | DEDERFAEIAIRLMIEIIKTGDEREEDKLIDPHARLIVGDWLIHGRDELVRYLTHLRIEHLEIKTWEVVNGRVKLTTRIHLRINGRHHETDQVNIIEKVNGRWYMKLIEFK | 1.19
22 | DEDERFFHEMLELWMHIYETGDWNRLHELFDPNALLLIGDKQVHGREKVTHYLFEMVHRADHSESRVRELHVIDGRVHIHLELHIDQGDKHLRIEIFLHAKKVNGRWVFTKLELR | 1.99
23 | DEDERFTKFAWELLVKALVTGDEDSLKDLFDPHARIFYNGRINHGRESFVKHLMEIRFKRIEMRRFDFFDGRVRMEGEVEGEVDGKEDHYRIEIVVKKYDGRWELKEFRLV | 1.68
24 | DEDERHARKVLELWLQSLLTGDEELTDHLLDPRVKILVDGVELHGREHARMFHRHIHMRIDHMKDFHIHSFTSVGDKVHVDIRIHFRQGDKEYRLNQRTLILKVNGRWVIEKIEVD | 2.22
25 | DEDERHFEIWFKLFIHLYLTGNEETLRHLADPNVRTVYNGRDFHGWDEMVRIHHEMFDFYKGLRVEKVNVESVEIFDGRVLILLRIRVLVNGRTTDDHIHVEAKKIDGQWIIESVDFR | 1.65

Row | Sequence | protease stability score
26 | DEDERHMEKMWRDWVHARYTGDEHRLDELFDPDARMLIDGVDAVGREEVHRLLHKMLKRLGIKHIEHVRITHIEIQGDKIHIENEIRGIVGDKTTTVEVHLVIIKVDGQWRIRSVEEK | 1.14
27 | DEDERHMRQTLEDYDHAVETGDWKRLRELADPDYKTDIDGVEIHGMELFWEHLRREVEKYKNVKVEFRLKRIRSIGDFMEIDGRLTLKYGDKEIRVRVIIHAIKVDGRWLFHRMIFG | 1.69
28 | DEDERHTKILIDLLLHNSHTGDEHVLRHLFDPNVKIVIGDKELIGREYADQFIKRVDVIDHIEIKDWHTIGDKVHFHGETEGVIDGRKVHTHVKLEMKKFDGRWLIHRIVIR | 1.95
29 | DEDERISRNFVRLILHAIRTGNENMIKTMADPNDRLEVGDKEFHGRELALEFWFRFDVLKEFHIRSVHSQGDKLHIEGESTWVIGDKEIRTTEHRLIIKIDGQWVLTEIKME | 1.62
30 | DEDERLAEEAVKLLIEINRTGDEDLFERNIDPNAQSDINGRRLHGMEQISEFLLRIKNIKLQPRHVDVQGDKMRVEGHLHINGQTHEVRWFVTKINGVWLITEIRVH | 1.12
31 | DEDERLAEEFFEKFTRDIYTGDWRALRELLDPNVRLHINGRNHHGREELLYFEIEIYRRADHVEHRLREVTLFDGRVHVDVEIILHQGDKLIVLHVILFMEKVDGRWILRRKEVR | 1.5
32 | DEDERLAKHFIELFIESFLTGDFDEVRKLIDPHTRVEIIIGDKVIEDHGWEAYSRTFNHLGIDHIHREDFRVTLVNGRAVLRLQFRIEIGDKEFDMHIHVFSNKINGRWHVERILIYVR | 2.34
33 | DEDERLEEEALRLLRHSLHTGDERIITELADPHARLEFNGREFHGREDFLRFIVHMRVRHEEEKSVRLQGDKVDVNWHMVVLFDGQLRRQDVRLILWKFNGRWHIKSIRIE | 1.5
34 | DEDERLFEEATRLWSKLVLTGDEKRLEELMDPNVRVVIGDKVFHGREIAVKVVKELRVEHIIIRRWEIIGDKAHIRGESRGIVNGVERVSTLDLTLLKIDGRWIIESIRLE | 1.09
35 | DEDERLLKELLESLIKSHRTGDWEHLRENADPRTRLEIGDKEIIGMEKVTHFWERERKRADHEHIEIHDMKIYDGVAHVDTRLHFHFNGVDITLEFRLIMLKVNGRWILKSEHLK | 0.133
36 | DEDERLLRDHLKLFQDAVRTGDEEVLSELLDPNVRLHIGDKTIHGREIVIDILRTEMRHLGVDYDETHLHHINIQGEWVHLHTELRLKVNGQRITLWTRLYLYKIDGKWIVTQIQLH | 2.3
37 | DEDERLMQKAMEELWDIWHTGDEDRYNELADPHDRFEVGDKEIHGREETSHFLTEFRKRVKGIRILTDRFDHRRIGDKVVLRLETRIEIDGVRIKTRLIFIIRKFNGKWHIHSIIVIIE | 0.673
38 | DEDERLSRELLKRWMTSIMTGDETSSQHLADPHDRIDINGREFHGRELATWVAHHLRIDSIQERHQEIQGEKLIVLGETDYIVDGVKQIRRTEYILRKFNGRWFFESIIFR | 0.9
39 | DEDERLYRIALEFLIEWHETGDEDEITRNVDPDARVDINGRNLVGREKVHRTLKELGINVLHIHRVHIVNGRLDVDGTVRFNGRTHRTRIIMLKVDGKWILDWLFIH | 1.56
40 | DEDERMIDEYLKKLVKSLITGDEETFTRLVDPHARHDFNGVEYHGWLWLHMVRKRADHFEVRIKNSEVQGDKLRLDFELIFRQGDKTITLKIQVIITKVDGRWIITSIDHD | 1.79
41 | DEDERNAHRMTQILIRSQETGDEHELMRLLDPHARVIIGDKHIHGWEEFSKLEHEYWERYKNMTLHVRLRHVEVINGVAHIHTHITININGKEDRFEIEIFFLKINGRWVLHSFRVD | 0.799
42 | DEDERNHEEIWELFLRVVMTGDWNLHKEMLDPHVRIDIDGVHIHGREEAVKHIRHLRVELNHFHIEDVKIVNGRARIQTHEEVTIRIDGVRIETRRSTELIMIKVDGRWLLHHEIVR | 0.524
43 | DEDERNLREFLRRMVEHWLTGNEESLKRLIDPEVRIHIGDKDLVGREEEERYHRQMRSDRLHVELDSVDIVGDKLQLHITIHIDSIVNGRRLDIKYRHTLHVRKINGRWILEESEIK | 0.814
44 | DEDERNVRDVAYLLLHALWTGDEDMLRHLIDPDVRFHIDGRHHHGWLRVLEMFREIRIHDFRMHDEKFRIIGDKAEARFDGESIVVIDGKEVDRRVEERYIIVKVNGQWRLKMIEVHLR | 1.55
45 | DEDERQLEESLKHWIKALETGNEEEVMRLLDPNVKIEIGDKDLHGMEAEEERLRKVKGMRIEFRLRDMKHIGDKIDIDGELRLNFNGVDIKSKIIIFAHKFNGRWINRRIIVL | 1.83
46 | DEDERRDRELAEHFEHLWMTGDEETLVENLDPNARVKVGDKENHGREAFILFLREFGIDHFEFRDSKIVNGQVHIDGEIDWNGRRTRVEHIVKIVDGKVKHWEIRIK | 1.52
47 | DEDERSAKHYLDLWHHALETGDEHEEERLLDPHVKVDIGDKTSHGRENTRDIIRRLLEELGADVLEFHIRHVNVVNGRVHLDGELVIKVGDYTLRSRTRLLVLKVNGRWFIERIKIE | 1.09
48 | DEDERTFRTAITLLLRDMHTGDEESFEKMVDPRTRLRYNGKELHGRDAYEFSLEELGVKHIEFKDMRVQGDFIWLEGTVNVNGKKIKLILIILKVDGKWIIHSIHLH | 0.799
49 | DEDERTMRIAFEMFKHNLETGDEDVIRRFVDPHVKIDIDGVHLHGWEVMYERIMRFDHVDIRLRDIRTFNGRAEIDGEILVEINGVSIEKRLIIHSEKIDGRWILRSHRII | 0.89
50 | DEDERVLEEALRLWLHWVATGNETKLMEMLDPNVRLDIGDKHTHGREKFHEFMKHHKELWGVTRFHLELKRYSIQGDKVEIDIEVDINGRHFDVHIRILKIDGKWRLEQVRIN | 1.51
